# Laboratory results reported in the Immune Epitope Database (IEDB).
# pKd: −log10 of the molar value.
# Assays:
# Experiment in all cases: IEDB peptide-MHC binding, purified MHC/competitive/fluorescence; filed as Kd, often an IC50 or EC50 that approximates it; ≥ and ≤ were set here for values at or beyond the usual limits of such assays
# Conditions in all cases: source organism: Entamoeba histolytica HM-1:IMSS
# HLA-A*02:03 = target: HLA-A*02:03
# HLA-A*02:12 = target: HLA-A*02:12
# HLA-A*24:03 = target: HLA-A*24:03
# HLA-A*29:02 = target: HLA-A*29:02
# HLA-B*07:02 = target: HLA-B*07:02
# HLA-B*08:01 = target: HLA-B*08:01
# HLA-B*40:01 = target: HLA-B*40:01
# HLA-B*51:01 = target: HLA-B*51:01
sequence,measurement,setting,value
EVRKAIEFV,pKd,HLA-A*02:03,≤ 4.70
same,pKd,HLA-A*02:12,≤ 4.70
same,pKd,HLA-A*24:03,≤ 4.70
same,pKd,HLA-A*29:02,≤ 4.70
same,pKd,HLA-B*07:02,≤ 5.30
same,pKd,HLA-B*08:01,≤ 5.30
same,pKd,HLA-B*40:01,≤ 5.30
same,pKd,HLA-B*51:01,≤ 4.70
